Source: patent publication US20230165982A1 (HOBER BIOTECH, published 2023)

Target: Human epidermal growth factor receptor 2 (HER2) (human, UniProt P04626 23-1255)
Assay: cell-based or functional assay

B1: 99mTc-ADAPT6 (designed binder)
chain: GSSHHHHHHDEAVDANSLAAAKETALYHLDRLGVADAYKDLIDKAKTVEGVKARYFEILHALP
modifications: also: 99mTc(CO)3 chelated by the His6 subsequence (residues 4-9)
tumor-to-contralateral breast ratio (SPECT), 2 h after injection of 250 µg: 7.8 | tumor-to-contralateral breast ratio (SPECT), patient 17 (tumor later found FISH-negative), 2 h after injection of 1000 µg: 1.33
